This assay concerns the target F-actin. In words: co-sedimentation; F-actin co-sedimentation of HA-cortactin WT, 8KQ and 8KR; gray values of cortactin in pellets and supernatants.
With “HA-tagged acetylation-mimetic cortactin (8KQ) (from UniProt Q60598 1-546) (natural protein)”, the ratio of gray value of cortactin in pellets and supernatants stood at 0.781. Turning to “HA-tagged cortactin (from UniProt Q60598 1-546) (natural protein)”, the ratio of gray value of cortactin in pellets and supernatants is 1.03. The same measure for “HA-tagged non-acetylation-mimetic cortactin (8KR) (from UniProt Q60598 1-546) (natural protein)”: 1.59.

For the origin of these results see paper PMC6786517.
